The values that follow come from patent US20260275378A1 (4D MOLECULAR THERAPEUTICS, published 2026).

The test deals with T1, complement C3b (UniProt P01024 23-667; P01024 749-1663).
T1 construct: purified C3b (Complement Technology Inc. cat #A114) in the cleavage assay; also called purified C3b; C3b fragment
As to the kind of experiment: C3b binding ELISA, C3b-coated plate, HEK293T supernatant. As for the experimental part: C3b binding ELISA. The C3b binding ELISA is an in-house ELISA adapted from Nichols et. al. ([…] The assay tests if CpG-free miniCFH retains direct C3b binding ability by utilizing monoclonal anti-CFH blocking antibodies to prevent miniCFH binding to a C3b coated plate. The assay was carried out with both full-length recombinant CFH as proof of concept, and supernatants from 293T cells transfected with CpG-free miniCFH. As a control, we included conditions of mock incubation of CFH and transfected cell supernatant with no antibodies.
Background: In an ELISA, binding on a coated surface is turned into a signal by an enzyme label.

T1 sequence (P01024 23-667 limits assumed, chain 1 of 2): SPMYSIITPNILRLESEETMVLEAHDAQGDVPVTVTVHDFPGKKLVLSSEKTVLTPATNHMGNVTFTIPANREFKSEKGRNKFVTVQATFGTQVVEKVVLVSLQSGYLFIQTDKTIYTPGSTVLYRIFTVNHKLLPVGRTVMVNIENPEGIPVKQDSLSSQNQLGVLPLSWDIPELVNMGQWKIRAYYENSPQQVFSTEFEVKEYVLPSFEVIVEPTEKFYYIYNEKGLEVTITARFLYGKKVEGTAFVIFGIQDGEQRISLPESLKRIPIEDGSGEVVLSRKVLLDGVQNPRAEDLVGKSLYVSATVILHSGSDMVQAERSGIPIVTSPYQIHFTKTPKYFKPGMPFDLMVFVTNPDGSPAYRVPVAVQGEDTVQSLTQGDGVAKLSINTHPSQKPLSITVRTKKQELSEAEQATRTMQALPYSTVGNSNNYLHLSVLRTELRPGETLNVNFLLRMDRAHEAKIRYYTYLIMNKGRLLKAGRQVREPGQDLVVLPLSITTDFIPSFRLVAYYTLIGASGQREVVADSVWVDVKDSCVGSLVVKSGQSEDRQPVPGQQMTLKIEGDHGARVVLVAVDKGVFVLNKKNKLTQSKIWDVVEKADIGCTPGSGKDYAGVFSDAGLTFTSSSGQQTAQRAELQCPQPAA
T1 sequence (P01024 749-1663 limits assumed, chain 2 of 2): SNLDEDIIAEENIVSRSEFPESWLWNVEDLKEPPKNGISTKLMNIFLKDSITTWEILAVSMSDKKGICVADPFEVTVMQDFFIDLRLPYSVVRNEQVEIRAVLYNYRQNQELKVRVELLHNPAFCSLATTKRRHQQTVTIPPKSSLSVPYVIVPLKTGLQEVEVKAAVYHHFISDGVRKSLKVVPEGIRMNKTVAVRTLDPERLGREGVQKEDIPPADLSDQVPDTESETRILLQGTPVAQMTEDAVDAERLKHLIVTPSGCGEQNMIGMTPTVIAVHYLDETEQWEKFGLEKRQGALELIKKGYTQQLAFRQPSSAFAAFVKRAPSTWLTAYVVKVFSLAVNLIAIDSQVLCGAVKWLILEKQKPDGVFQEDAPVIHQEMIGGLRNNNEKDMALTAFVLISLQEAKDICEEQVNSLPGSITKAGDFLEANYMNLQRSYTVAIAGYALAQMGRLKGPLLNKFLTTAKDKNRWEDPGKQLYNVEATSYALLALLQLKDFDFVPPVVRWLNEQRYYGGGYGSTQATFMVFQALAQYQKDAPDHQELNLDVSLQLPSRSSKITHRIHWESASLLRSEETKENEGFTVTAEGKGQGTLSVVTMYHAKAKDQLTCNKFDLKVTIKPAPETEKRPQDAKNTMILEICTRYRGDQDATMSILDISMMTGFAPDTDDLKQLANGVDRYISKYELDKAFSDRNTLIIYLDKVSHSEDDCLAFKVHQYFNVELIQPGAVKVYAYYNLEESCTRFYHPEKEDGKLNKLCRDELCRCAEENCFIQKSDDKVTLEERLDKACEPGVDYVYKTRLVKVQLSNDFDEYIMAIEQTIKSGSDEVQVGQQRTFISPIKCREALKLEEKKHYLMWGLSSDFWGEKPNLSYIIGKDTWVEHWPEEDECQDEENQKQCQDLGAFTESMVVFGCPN

B1: miniCFH (shortened form of human complement factor H containing SCRs 1-4, 6-8 and 17-20) (other)
chain: EDCNELPPRRNTEILTGSWSDQTYPEGTQAIYKCRPGYRSLGNIIMVCRKGEWVALNPLRKCQKRPCGHPGDTPFGTFTLTGGNVFEYGVKAVYTCNEGYQLLGEINYRECDTDGWTNDIPICEVVKCLPVTAPENGKIVSSAMEPDREYHFGQAVRFVCNSGYKIEGDEEMHCSDDGFWSKEKPKCVEISCKSPDVINGSPISQKIIYKENERFQYKCNMGYEYSERGDAVCTESGWRPLPSCEEKSTLKPCDYPDIKHGGLYHENMRRPYFPVAVGKYYSYYCDEHFETPSGSYWDHIHCTQDGWSPAVPCLRKCYFPYLENGYNQNYGRKFVQGKSIDVACHPGYALPKAQTTVTCMENGWSPTPRCIRVKTCSKSSIDIENGFISESQYTYALKEKAKYQCKLGYVTADGETSGSITCGKDGWSAQPTCIKSIKTDCLSLPSFENAIPMGEKKDVYKAGEQVTYTCATYYKMDGASNVTCINSRWTGRPTCRDTSCVNPPTVQNAYIVSRQMSKYPSGERVRYQCRSPYEMFGDEEVMCLNGNWTEPPQCKDSTGKCGPPPPIDNGDITSFPLSVYAPASSVEYQCQNLYQLEGNKRITCRNGQWSEPPKCLHPCVISREIMENYNIALRWTAKQKLYSRTGESVEFVCKRGYRLSSRSHTLRTTCWDGKLEYPTCAKR
notes: Tested as unpurified serum-free supernatant of HEK293T cells transfected with the rAAV plasmid cassette; also called CpG-free miniCFH; short CFH
Regarding B1, the binding result is “binds”.
